Results from doi:10.1101/2021.12.21.473719.

Molecular target: POPDC1 tagged with Venus (YFP acceptor for FLIM-FRET with TREK-1) (mouse) (UniProt Q9ES83)
Assay: FRET or BRET

Chain of POPDC1 tagged with Venus (YFP acceptor for FLIM-FRET with TREK-1) (mouse) (Q9ES83 whole entry): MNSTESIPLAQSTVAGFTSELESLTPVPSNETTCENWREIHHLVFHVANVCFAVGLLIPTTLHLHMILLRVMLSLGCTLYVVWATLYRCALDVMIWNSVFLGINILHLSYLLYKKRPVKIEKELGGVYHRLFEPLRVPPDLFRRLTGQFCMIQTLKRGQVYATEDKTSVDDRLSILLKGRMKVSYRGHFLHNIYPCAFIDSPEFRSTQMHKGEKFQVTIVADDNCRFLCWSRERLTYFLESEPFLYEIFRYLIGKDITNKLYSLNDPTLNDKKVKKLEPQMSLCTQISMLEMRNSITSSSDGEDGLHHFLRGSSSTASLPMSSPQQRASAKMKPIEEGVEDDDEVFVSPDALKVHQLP
Chain of Cerulean-TREK-1 (natural protein) (O95069 whole entry): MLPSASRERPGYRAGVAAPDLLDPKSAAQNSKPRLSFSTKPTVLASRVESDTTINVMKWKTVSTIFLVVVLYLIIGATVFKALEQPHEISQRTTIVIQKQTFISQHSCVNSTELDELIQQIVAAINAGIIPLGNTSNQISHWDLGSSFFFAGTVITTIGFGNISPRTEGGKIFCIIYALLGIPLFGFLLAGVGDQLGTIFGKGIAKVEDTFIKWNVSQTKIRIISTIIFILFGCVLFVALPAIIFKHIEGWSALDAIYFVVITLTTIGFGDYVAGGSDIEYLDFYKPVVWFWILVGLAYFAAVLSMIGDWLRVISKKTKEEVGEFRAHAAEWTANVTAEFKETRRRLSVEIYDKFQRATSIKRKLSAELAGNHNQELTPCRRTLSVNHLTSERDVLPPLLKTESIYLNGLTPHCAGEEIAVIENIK

Cerulean-TREK-1 (natural protein)
FRET efficiency: 18%
